Data: patent US11278600B2, “Human alpha-galactosidase variants” (Codexis, Inc., priority 2014, dated 2022)
Changes are numbered by the printed parent chain.

B1: 37 (protein)
chain: LDNGLARTPTMGWLHWERFMCNLDCQEEPDSCISEKLFMEMAELMVSEGWKDAGYEYLCIDDCWMAPQRDSEGRLQADPQRFPHGIRQLANYVHSKGLKLGIYAAVGNKTCAGFPGSFGYYDIDAQTFADWGVDLLKFDGCYCDSLENLADGYKHMSLALNRTGRSIVYSCEWPLYMWPFQKPNYTEIRQYCNHWRNFADIDDSWKSIKSILDWTSFNQERIVDVAGPGGWNDPDMLVIGNFGLSWNQQVTQMALWAIMAAPLFMSNDLRHISPQAKALLQDKDVIAINQDPLGKQGYQLRQGDNFEVWERPLSGLAWAVAMINRQEIGGPRSYTIAVASLGKGVACNPACFITQLLPVKRKLGFYEWTSRLRSHINPTGTVLLQLENTMQMSKDLLL
modifications: Synthetic Polypeptide sequence of Variant No. 37 of mature Human GLA
B2: 143 (protein)
chain: B1 chain with Q80H, A105D
modifications: Synthetic Polypeptide sequence of Variant No. 143 of mature Human GLA
B3: 156 (protein)
chain: B1 chain with A105D, R371S
modifications: Synthetic Polypeptide sequence of Variant No. 156 of mature Human GLA
B4: 150 (protein)
chain: B1 chain with A105D, R162H
modifications: Synthetic Polypeptide sequence of Variant No. 150 of mature Human GLA
B5: 149 (protein)
chain: B1 chain with Q88S, A105D
modifications: Synthetic Polypeptide sequence of Variant No. 149 of mature Human GLA
B6: 153 (protein)
chain: B1 chain with A105D, R221T
modifications: Synthetic Polypeptide sequence of Variant No. 153 of mature Human GLA
B7: 155 (protein)
chain: B1 chain with A105D, R301L
modifications: Synthetic Polypeptide sequence of Variant No. 155 of mature Human GLA
B8: 152 (protein)
chain: B1 chain with A105D, R221K, A350G
modifications: Synthetic Polypeptide sequence of Variant No. 152 of mature Human GLA
B9: 147 (protein)
chain: B1 chain with Q88H, A105D
modifications: Synthetic Polypeptide sequence of Variant No. 147 of mature Human GLA
B10: 148 (protein)
chain: B1 chain with Q88R, A105D
modifications: Synthetic Polypeptide sequence of Variant No. 148 of mature Human GLA
B11: 38 (protein)
chain: B1 chain with A105S
modifications: Synthetic Polypeptide sequence of Variant No. 38 of mature Human GLA
B12: 145 (protein)
chain: B1 chain with Q88A, A105D
modifications: Synthetic Polypeptide sequence of Variant No. 145 of mature Human GLA
B13: 154 (protein)
chain: B1 chain with A105D, R301I, K362T
modifications: Synthetic Polypeptide sequence of Variant No. 154 of mature Human GLA
B14: 146 (protein)
chain: B1 chain with Q88F, A105D
modifications: Synthetic Polypeptide sequence of Variant No. 146 of mature Human GLA
B15: 144 (protein)
chain: B1 chain with Q80V, A105D
modifications: Synthetic Polypeptide sequence of Variant No. 144 of mature Human GLA
B16: 151 (protein)
chain: B1 chain with A105D, R162S
modifications: Synthetic Polypeptide sequence of Variant No. 151 of mature Human GLA

What was measured:
Assay type in all cases: biochemical
[1] = HTP-analysis of yeast culture supernatants, no challenge (MUGal hydrolysis); settings: activity of the variant/activity of WT GLA (SEQ ID NO: 5), yeast supernatant
Outline: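 GLA variants expressed in yeast INVSc1, secreted into SD-Ura broth over 66-84 h at 30° C; clarified supernatants tested without challenge. Supernatant mixed with McIlvaine buffer pH 4.8 and 2 mM MUGal (citrate/KCl, pH 4.6), 37° C for 30-180 min, carbonate-quenched, fluorescence Ex 355/Em 448 nm.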

[2] = HTP-analysis of supernatants pretreated with acid (MUGal hydrolysis); settings: challenge at pH 4.2; activity of the variant/activity of WT GLA (SEQ ID NO: 5); yeast supernatant
Outline: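 Yeast INVSc1 supernatant, GLA variants; acid challenge: McIlvaine pH 3.3-4.3, 37° C., 1-3 h. Assay: MUGal in McIlvaine pH 4.8 plus citrate pH 4.3, 37° C., 30-180 min, Na2CO3 stop, Ex 355/Em 448 nm.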

[3] = HTP-analysis of supernatants pretreated with base (MUGal hydrolysis); settings: challenge at pH 7.1; activity of the variant/activity of WT GLA (SEQ ID NO: 5); yeast supernatant
Outline: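 GLA variants secreted from yeast INVSc1; culture supernatants pre-incubated with McIlvaine buffer pH 7.0–8.2 or 200 mM bicarbonate pH 9.1–9.7 at 37° C. for 1–18 h. Residual activity: MUGal (4 mM stock) hydrolysis at pH 4.3–4.8, 37° C., 30–180 min, carbonate quench; fluorescence Ex 355/Em 448 nm.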

| Molecule | Relative Activity of GLA Variants After No Challenge (NC) [1] | Relative Activity of GLA Variants After Challenge at pH 4.2 [2] | Relative Activity of GLA Variants After Challenge at pH 7.1 [3] |
| --- | --- | --- | --- |
| B1 | + (+ = 0.5 to 1.5 relative activity over WT GLA (SEQ ID NO: 5)) | + (+ = 0.5 to 1.5 relative activity over WT GLA (SEQ ID NO: 5)) | + (+ = 0.5 to 1.5 relative activity over WT GLA (SEQ ID NO: 5)) |
| B2 | + (+ = 0.5 to 1.5 relative activity over WT GLA (SEQ ID NO: 5)) | + (+ = 0.5 to 1.5 relative activity over WT GLA (SEQ ID NO: 5)) | + (+ = 0.5 to 1.5 relative activity over WT GLA (SEQ ID NO: 5)) |
| B3 | ++ (++ = >1.5 to 2.5 relative activity over WT GLA (SEQ ID NO: 5)) | + (+ = 0.5 to 1.5 relative activity over WT GLA (SEQ ID NO: 5)) | ++ (++ = >1.5 to 2.5 relative activity over WT GLA (SEQ ID NO: 5)) |
| B4 | + (+ = 0.5 to 1.5 relative activity over WT GLA (SEQ ID NO: 5)) | + (+ = 0.5 to 1.5 relative activity over WT GLA (SEQ ID NO: 5)) | + (+ = 0.5 to 1.5 relative activity over WT GLA (SEQ ID NO: 5)) |
| B5 | ++ (++ = >1.5 to 2.5 relative activity over WT GLA (SEQ ID NO: 5)) | + (+ = 0.5 to 1.5 relative activity over WT GLA (SEQ ID NO: 5)) | ++ (++ = >1.5 to 2.5 relative activity over WT GLA (SEQ ID NO: 5)) |
| B6 | + (+ = 0.5 to 1.5 relative activity over WT GLA (SEQ ID NO: 5)) | + (+ = 0.5 to 1.5 relative activity over WT GLA (SEQ ID NO: 5)) | ++ (++ = >1.5 to 2.5 relative activity over WT GLA (SEQ ID NO: 5)) |
| B7 | + (+ = 0.5 to 1.5 relative activity over WT GLA (SEQ ID NO: 5)) | + (+ = 0.5 to 1.5 relative activity over WT GLA (SEQ ID NO: 5)) | + (+ = 0.5 to 1.5 relative activity over WT GLA (SEQ ID NO: 5)) |
| B8 | ++ (++ = >1.5 to 2.5 relative activity over WT GLA (SEQ ID NO: 5)) | ++ (++ = >1.5 to 2.5 relative activity over WT GLA (SEQ ID NO: 5)) | ++ (++ = >1.5 to 2.5 relative activity over WT GLA (SEQ ID NO: 5)) |
| B9 | ++ (++ = >1.5 to 2.5 relative activity over WT GLA (SEQ ID NO: 5)) | ++ (++ = >1.5 to 2.5 relative activity over WT GLA (SEQ ID NO: 5)) | ++ (++ = >1.5 to 2.5 relative activity over WT GLA (SEQ ID NO: 5)) |
| B10 | + (+ = 0.5 to 1.5 relative activity over WT GLA (SEQ ID NO: 5)) | ++ (++ = >1.5 to 2.5 relative activity over WT GLA (SEQ ID NO: 5)) | + (+ = 0.5 to 1.5 relative activity over WT GLA (SEQ ID NO: 5)) |
| B11 | − (− = <0.5 relative activity to WT GLA (SEQ ID NO: 5)) | + (+ = 0.5 to 1.5 relative activity over WT GLA (SEQ ID NO: 5)) | − (− = <0.5 relative activity to WT GLA (SEQ ID NO: 5)) |
| B12 | + (+ = 0.5 to 1.5 relative activity over WT GLA (SEQ ID NO: 5)) | + (+ = 0.5 to 1.5 relative activity over WT GLA (SEQ ID NO: 5)) | + (+ = 0.5 to 1.5 relative activity over WT GLA (SEQ ID NO: 5)) |
| B13 | ++ (++ = >1.5 to 2.5 relative activity over WT GLA (SEQ ID NO: 5)) | + (+ = 0.5 to 1.5 relative activity over WT GLA (SEQ ID NO: 5)) | ++ (++ = >1.5 to 2.5 relative activity over WT GLA (SEQ ID NO: 5)) |
| B14 | + (+ = 0.5 to 1.5 relative activity over WT GLA (SEQ ID NO: 5)) | + (+ = 0.5 to 1.5 relative activity over WT GLA (SEQ ID NO: 5)) | + (+ = 0.5 to 1.5 relative activity over WT GLA (SEQ ID NO: 5)) |
| B15 | + (+ = 0.5 to 1.5 relative activity over WT GLA (SEQ ID NO: 5)) | ++ (++ = >1.5 to 2.5 relative activity over WT GLA (SEQ ID NO: 5)) | + (+ = 0.5 to 1.5 relative activity over WT GLA (SEQ ID NO: 5)) |
| B16 | + (+ = 0.5 to 1.5 relative activity over WT GLA (SEQ ID NO: 5)) | + (+ = 0.5 to 1.5 relative activity over WT GLA (SEQ ID NO: 5)) | + (+ = 0.5 to 1.5 relative activity over WT GLA (SEQ ID NO: 5)) |
